# Test results from article PMC2912431.
# Columns and labels:
# [1] = target: C28A UreGStr (Klebsiella aerogenes) (UniProt P18319); test: SEC
# [2] = target: Klebsiella aerogenes UreE (Klebsiella aerogenes); test: SEC
stoichiometry N [2],Substance,stoichiometry N [1]
,C28A UreGStr (from UniProt P18319 1-205) (natural protein),2
2,Klebsiella aerogenes UreE (natural protein),
